Data: patent publication US7250269B2, “Composition for assaying glycoprotein” (Asahi Kasei Pharma Corporation, priority 2001, dated 2007)

Experiments:
Assay type in all cases: biochemical
[1] = system: G-I substrate solution (Glovenin I: immunoglobulin preparation); experiment: Activity of various proteases on G-I substrate solution (R-FOD assay); conditions: pH 8.0, 37° C. for 30 minutes
Experimental: (§1) • 1. […] GA % was assayed using a glycated albumin analyzer (GAA-2000, manufactured by ARKRAY, Inc.). • 2. G-II and III substrate solutions, FRA value=48 μmol/L [Globulins Human Cohn Fraction II and III; 16.9 mg/ml (manufactured by Sigma-Aldrich Co.)] • 3. G-IV substrate solution, FRA value=26 μmol/L [Globulins Human Cohn Fraction IV; 6 mg/ml (manufactured by Sigma-Aldrich Co.)] • 4. G-I substrate solution, FRA value=77 μmol/L [Glovenin I: immunoglobulin preparation (manufactured by Takeda Chemical Industries, Ltd.)] • 5. Hb substrate solution: Hemoglobin Human; 55 mg/ml, glycated hemoglobin rate: HbA1c=4.5% [manufactured by Sigma-Aldrich Co., the HbA1c value was determined using a glycated hemoglobin analyzer (Hi-Auto A1C HA-8150, manufactured by ARKRAY, Inc.)].
(§2) 200 μl of a substrate solution other than Hb, 40 μl of 100 mg/ml protease solution (a solution with a concentration as close to 100 mg/ml as possible if a 100 mg/ml solution cannot be prepared, or as is if the protease solution is liquid), and 10 μl of 1 M Tris buffer solution (pH 8) were thoroughly mixed and reacted at 37° C. for 30 minutes. The reaction solution was filtered through 10,000 NMWL membrane (Ultrafree MC, manufactured by Millipore Corp.) The filtrate was served as the protease reaction sample. The same procedure was conducted using distilled water instead of the substrate to prepare a blank sample.
(§3) 300 μl of the above reaction solution for assaying glycated amino acids was added to a cell and incubated for three minutes at 37° C. […] 30 μl of the protease reaction sample was then added to the cell and incubated for five minutes at 37° C. […] The same procedure was conducted using the blank sample instead of the protease reaction sample. Absorbances (A0 blank and A1 blank) were measured. The reaction of protease with glycated proteins is indicated by the following absorbance change. ΔA=(A1−A0)−(A1 blank−A0 blank)

[2] = biological target: T1, Hb substrate solution: Hemoglobin Human (Homo sapiens, UniProt P68871+P69905); experiment: Activity of various proteases on Hb substrate solution (R-FOD assay); conditions: pH 8.0; 37° C. for 60 minutes
T1 construct: purchased Sigma-Aldrich Co
Experimental: as §1
For the Hb substrate solution, 150 μl of the substrate solution, 60 μl of 200 mg/ml protease solution (a solution with a concentration as close to 200 mg/ml as possible if a 200 mg/ml solution cannot be prepared, or as is if the protease solution is liquid), and 5 μl of 1 M Tris buffer solution (pH 8) were thoroughly mixed and reacted at 37° C. for 60 minutes. The reaction solution was filtered through 10,000 NMWL membrane (Ultrafree MC, manufactured by Millipore Corp.). The filtrate was served as the protease reaction sample. The same procedure was conducted using distilled water instead of the substrate to prepare a blank sample.
as §3

[3] = biological target: T2, HSA substrate solution; Albumin Human (Homo sapiens, UniProt P02768); experiment: Activity of various proteases on HSA substrate solution (released glycated amino acids/peptides assayed with R-FOD); conditions: pH 8.0; 37° C. for 30 minutes
T2 construct: purchased Sigma-Aldrich Co
Experimental: as §1, §2, §3

[4] = FOD enzyme activity / substrate specificity on glycated lysine; conditions: glycated lysine / glycated valine
Experimental: 164 strains of mutant colonies obtained in Example 15 were cultured for 16 hours at 30° C. in 1.5 ml of a 3.7% BHI liquid medium (manufactured by DIFCO Co.) containing 50 μg/ml of ampicillin and 1 mM of IPTG. 1 ml of the culture broth was centrifuged (15,000 G for one minute at 4° C.) to collect cells. 200 μl of 10 mM Tris-HCl buffer solution (pH 8.0) was added to the collected cells. After crushing the cells using an ultrasonic breaker, the mixture was centrifuged (14,000 G for five minutes at 4° C.) to obtain a cell extract as a supernatant.
The glycated amino acid substrate specificity of FOD-mutated recombinant contained in the cell extract prepared in Example 16 was measured using the above-mentioned FOD enzyme activity measuring method.
Synthesis of an oligonucleotide having the base sequence of 1-27 in the sequence table Sequence ID No. 7 was consigned to an outside source (BEX Co., Ltd.). The oligonucleotide was subjected to the site-directed mutagenesis using the Mutan-K kit (manufactured by Takara Shuzo Co., Ltd.) according to the manual attached to the kit. The mutant gene obtained was incorporated again into the expression plasmid pTV119N, introduced into Escherichia coli host, and cultured at 30° C. for 16 hours in a 3.7% BHI liquid medium containing 50 μg/ml of ampicillin and 1 mM of IPTG to produce mutant FOD protein.

T1 sequence (P69905 2-142 limits assumed): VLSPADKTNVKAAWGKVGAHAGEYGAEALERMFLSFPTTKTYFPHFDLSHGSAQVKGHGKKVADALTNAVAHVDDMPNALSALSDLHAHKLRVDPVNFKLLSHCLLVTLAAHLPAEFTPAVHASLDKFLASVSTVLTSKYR
T1 sequence (P68871 2-147 limits assumed): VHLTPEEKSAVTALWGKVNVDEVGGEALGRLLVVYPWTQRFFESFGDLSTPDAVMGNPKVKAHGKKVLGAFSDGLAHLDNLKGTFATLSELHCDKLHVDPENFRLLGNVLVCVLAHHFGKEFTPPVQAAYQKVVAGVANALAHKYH

Row | Molecule | ΔA Gl [1] | ΔA Hb [2] | ΔA HSA [3] | Reactivity ratio, glycated lysine / glycated valine [4]
1 | Carboxypeptidase A: protease, origin Cow pancreas (protein, UniProt P00730 111-419, looked up) Carboxypeptidase A1: ARSTNTFNYATYHTLDEIYDFMDLLVAEHPQLVSKLQIGRSYEGRPIYVLKFSTGGSNRPAIWIDLGIHSREWITQATGVWFAKKFTEDYGQDPSFTAILDSMDIFLEIVTNPDGFAFTHSQNRLWRKTRSVTSSSLCVGVDANRNWDAGFGKAGASSSPCSETYHGKYANSEVEVKSIVDFVKDHGNFKAFLSIHSYSQLLLYPYGYTTQSIPDKTELNQVAKSAVEALKSLYGTSYKYGSIITTIYQASGGSIDWSYNQGIKYSFTFELRDTGRYGFLLPASQIIPTAQETWLGVLTIMEHTLNNLY | 50 mAbs | 13 mAbs | <1 mAbs | 
2 | Carboxypeptidase Y: protease, origin Yeast (protein, UniProt P00729 112-532, looked up) Carboxypeptidase Y: KIKDPKILGIDPNVTQYTGYLDVEDEDKHFFFWTFESRNDPAKDPVILWLNGGPGCSSLTGLFFELGPSSIGPDLKPIGNPYSWNSNATVIFLDQPVNVGFSYSGSSGVSNTVAAGKDVYNFLELFFDQFPEYVNKGQDFHIAGESYAGHYIPVFASEILSHKDRNFNLTSVLIGNGLTDPLTQYNYYEPMACGEGGEPSVLPSEECSAMEDSLERCLGLIESCYDSQSVWSCVPATIYCNNAQLAPYQRTGRNVYDIRKDCEGGNLCYPTLQDIDDYLNQDYVKEAVGAEVDHYESCNFDINRNFLFAGDWMKPYHTAVTDLLNQDLPILVYAGDKDFICNWLGNKAWTDVLPWKYDEEFASQKVRNWTASITDEVAGEVKSYKHFTYLRVFNGGHMVPFDVPENALSMVNEWIHGGFSL | 14 mAbs | 4 mAbs | 2 mAbs | 
3 | Papain: protease, origin Papaya (protein, UniProt P00784 134-345, looked up) Papain: IPEYVDWRQKGAVTPVKNQGSCGSCWAFSAVVTIEGIIKIRTGNLNEYSEQELLDCDRRSYGCNGGYPWSALQLVAQYGIHYRNTYPYEGVQRYCRSREKGPYAAKTDGVRQVQPYNEGALLYSIANQPVSVVLEAAGKDFQLYRGGIFVGPCGNKVDHAVAAVGYGPNYILIKNSWGTGWGENGYIRIKRGTGNSYGVCGLYTSSFYPVKN | 5 mAbs | <1 mAbs | 15 mAbs | 
4 | Trypsin: protease, origin Cow pancreas (protein, UniProt P00760 24-246, looked up) Serine protease 1: IVGGYTCGANTVPYQVSLNSGYHFCGGSLINSQWVVSAAHCYKSGIQVRLGEDNINVVEGNEQFISASKSIVHPSYNSNTLNNDIMLIKLKSAASLNSRVASISLPTSCASAGTQCLISGWGNTKSSGTSYPDVLKCLKAPILSDSSCKSAYPGQITSNMFCAGYLEGGKDSCQGDSGGPVVCSGKLQGIVSWGSGCAQKNKPGVYTKVCNYVSWIKQTIASN | 15 mAbs | <1 mAbs | 11 mAbs | 
5 | Alcalase: protease, origin Bacillus (protein, UniProt P00780 106-379, looked up) Subtilisin Carlsberg: AQTVPYGIPLIKADKVQAQGFKGANVKVAVLDTGIQASHPDLNVVGGASFVAGEAYNTDGNGHGTHVAGTVAALDNTTGVLGVAPSVSLYAVKVLNSSGSGSYSGIVSGIEWATTNGMDVINMSLGGASGSTAMKQAVDNAYAKGVVVVAAAGNSGSSGNTNTIGYPAKYDSVIAVGAVDSNSNRASFSSVGAELEVMAPGAGVYSTYPTNTYATLNGTSMASPHVAGAAALILSKHPNLSASQVRNRLSSTATYLGSSFYYGKGLINVEAAAQ | 49 mAbs | 17 mAbs | 92 mAbs | 
6 | Reactive 327th amino acid Valine: mutant obtained by replacing the lysine with valine, named FOD-V; plasmid pcmFOD5; Sequence ID No. 4 (protein, sequence derived from Fusarium oxysporum IFO- 9722) ASTLTKQSQILIVGGGTWGCSTALHLARRGYTNVTVLDVNRIPSPISAGHDVNKLAGRLSTADSKGDDEDSIWKALSYAAAQGWLHDPVFQPFCHNTGSVVAGSTPKSIKQLVEDEIGDDIDQYTPLNTAEDFRKTMPEGILTGNFPGWKGFYKPTGSGWVHARKAMKAAFEESERLGVKFITGSPEGKVESLIFEDGDVRGAKTADGKEHRADRTILSAGASAEFFLDFENQIQPTAWTLGHIQMTPEETKLYKNLPPLFNINQGFFMEPDEDLHQLKMCDEHPGYCNWVEKPGSKYPQSIPFAKHQVPTEAERRMKQFLKDIMPQLADRPLVHARICWCADTQDRMFLITYHPRHPSLVIASGDCGTGYVHITSIGKFISDCMEGTLEERFAKFWRWRPEKFTEFWGKDPLDRFGADDKIMDLPKSDVEGWTNIKNDI |  |  |  | 1930
7 | Reactive 327th amino acid Lysine (wild type): wild type fructosyl amino acid oxidase (FOD) originating from Fusarium oxysporm IFO-9972, Sequence ID No. 1 (protein) ASTLTKQSQILIVGGGTWGCSTALHLARRGYTNVTVLDVNRIPSPISAGHDVNKLAGRLSTADSKGDDEDSIWKALSYAAAQGWLHDPVFQPFCHNTGSVVAGSTPKSIKQLVEDEIGDDIDQYTPLNTAEDFRKTMPEGILTGNFPGWKGFYKPTGSGWVHARKAMKAAFEESERLGVKFITGSPEGKVESLIFEDGDVRGAKTADGKEHRADRTILSAGASAEFFLDFENQIQPTAWTLGHIQMTPEETKLYKNLPPLFNINQGFFMEPDEDLHQLKMCDEHPGYCNWVEKPGSKYPQSIPFAKHQVPTEAERRMKQFLKDIMPQLADRPLVHARICWCADTQDRMFLITYHPRHPSLVIASGDCGTGYKHITSIGKFISDCMEGTLEERFAKFWRWRPEKFTEFWGKDPLDRFGADDKIMDLPKSDVEGWTNIKNDI |  |  |  | 9.5
8 | Proteinase K: protease, origin Tritirachium (protein, UniProt P06873 106-384, looked up) Proteinase K: AAQTNAPWGLARISSTSPGTSTYYYDESAGQGSCVYVIDTGIEASHPEFEGRAQMVKTYYYSSRDGNGHGTHCAGTVGSRTYGVAKKTQLFGVKVLDDNGSGQYSTIIAGMDFVASDKNNRNCPKGVVASLSLGGGYSSSVNSAAARLQSSGVMVAVAAGNNNADARNYSPASEPSVCTVGASDRYDRRSSFSNYGSVLDIFGPGTSILSTWIGGSTRSISGTSMATPHVAGLAAYLMTLGKTTAASACRYIADTANKGDLSNIPFGTVNLLAYNNYQA | 45 mAbs | 32 mAbs | 79 mAbs | 
